The supplement of paper PMC10899765

Columns and labels:
Details in all cases: 20 nM; 72 h
MCF10A [1] = experiment: percent viability (nuclei count relative to siNT); higher = more viable cells
Protocol: (§1)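 After 72 h, cells were fixed and stained with Hoechst and anti-fibrillarin, and nucleoli per nucleus were counted with CellProfiler. Values are plate-adjusted percent effect for the one-nucleolus and 5+ nucleoli phenotypes, normalised to siNT (0%) and to the positive controls siNOL11 or siKIF11 (100%), as the mean of biological triplicates. Percent viability is the nuclei count relative to siNT.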

MCF10A [2] = experiment: 5+ nucleoli phenotype percent effect (relative to siNT 0% and siKIF11 100%); higher = more cells with five or more nucleoli
Protocol: as §1

MCF10A [3] = experiment: one-nucleolus phenotype percent effect (relative to siNT 0% and siNOL11 100%); higher = more cells with one nucleolus (ribosome biogenesis inhibition)
Protocol: as §1

Row | Sequence | percent viability (MCF10A [1]) | 5+ nucleoli phenotype percent effect (MCF10A [2]) | one-nucleolus phenotype percent effect (MCF10A [3])
1 | UUUGUUCGUUCGGCUCGCGUGA [hsa-miR-375] | 59.7% | 5.82% | 0.601%
2 | CUCUAGAGGGAAGCGCUUUCUG [hsa-miR-519a-5p] | 56.5% | -2.96% | -15.1%
3 | AGCUCCCUGAAUCCCUGUCCCAG [hsa-miR-7106-3p] | 74.6% | 32.5% | -19.5%
4 | ACCGCCUGCCCAGUGA [hsa-miR-4485-5p] | 70.4% | 24.1% | -16.3%
5 | AGGGGUGGUGUUGGGACAGCUCCGU [hsa-miR-608] | 10.6% | -9.99% | 8.02%
6 | AAAGAUGGACAAUUGGCUAAAU [hsa-miR-4662b] | 38.3% | -25.7% | 49.4%
7 | AUUCUAAUUUCUCCACGUCUUU [hsa-miR-576-5p] | 100% | 28.2% | 1.07%
8 | AUCAUGAUGGGCUCCUCGGUGU [hsa-miR-433] | 63.2% | -11.3% | -2.79%
9 | UCUCUCUGACUCCAUGGCA [hsa-miR-6817-3p] | 39.3% | 1.83% | 1.99%
10 | UCAACAAAAUCACUGAUGCUGGA [hsa-miR-3065-5p] | 117% | 38.2% | -30.5%
11 | CCUCCUGAUGAUUCUUCUUC [hsa-miR-3653-5p] | 159% | 32.7% | -22.7%
12 | CAUGGGAGUUCGGGGUGGUUGC [hsa-miR-6871-5p] | 25.6% | 5.7% | 14.1%
13 | UGGGUUCCUGGCAUGCUGAUUU [hsa-miR-23b-5p] | 59.2% | 1.4% | 2.38%
14 | UCUAUACAGACCCUGGCUUUUC [hsa-miR-1284] | 75.8% | 31.3% | -16.5%
15 | AGGGGGAAAGUUCUAUAGUCC [hsa-miR-625-5p] | 12.6% | -16.9% | 21.3%
16 | UGGCCGGAUGGGACAGGAGGCAU [hsa-miR-4743-5p] | 25.6% | -11.6% | 20.6%
17 | ACAGGCAGGAUUGGGGAA [hsa-miR-4514] | 18.4% | -12% | 32.3%
18 | CUCCUCCCCUGCCUGGCCCAG [hsa-miR-6749-3p] | 48.8% | 0.0227% | -2.87%
19 | AAGCGACCAUGAUGUAACUUCA [hsa-miR-4670-5p] | 49.2% | -4.37% | 14%
20 | UCUGCUCAUACCCCAUGGUUUCU [hsa-miR-767-3p] | 129% | 54.2% | -21.6%
21 | UGUGAGGUUGGCAUUGUUGUCU [hsa-miR-1294] | 28.9% | -10.7% | 19%
22 | ACAAAAAAAAAAGCCCAACCCUUC [hsa-miR-3613-3p] | 91.6% | 16.2% | -10.2%
23 | AAACACCAUUGUCACACUCCAC [hsa-miR-3591-3p] | 27.5% | -27% | 32.5%

Row | Sequence | percent viability (MCF10A [1]) | 5+ nucleoli phenotype percent effect (MCF10A [2]) | one-nucleolus phenotype percent effect (MCF10A [3])
24 | AGGGACUGCCUUAGGAGAAAGUU [hsa-miR-3199] | 57.4% | 42.9% | -15.3%
25 | AUUAAGGACAUUUGUGAUUGAU [hsa-miR-4477b] | 37.8% | 7% | -4.92%
26 | AGGGAGGGUGUGGUAUGGAUGU [hsa-miR-6883-5p] | 42% | -4.87% | 8.82%
27 | GUAGAGGAGAUGGCGCAGGG [hsa-miR-877-5p] | 54.7% | 10.3% | -6.88%
28 | UGACUCUGCCUGUAGGCCGGU [hsa-miR-4522] | 16.2% | -19.6% | 23.6%
29 | AGAGCUGGCUGAAGGGCAG [hsa-miR-4487] | 18.7% | 16.5% | 25.5%
30 | ACCCCCGGGCAAAGACCUGCAGAU [hsa-miR-6840-5p] | 92% | -18.8% | 5.12%
31 | AAGUCCCACUAAUGCCAGC [hsa-miR-5588-3p] | 42.5% | -3.98% | 6.67%
32 | GGGGUAUUGUUUCCGCUGCCAGG [hsa-miR-503-3p] | 40.1% | -25.1% | 39%
33 | UGGGAGGGGAGAGGCAGCAAGCA [hsa-miR-4728-5p] | 7% | -29.9% | 46%
34 | GGCCACUGAGUCAGCACCA [hsa-miR-4252] | 46.1% | 5.41% | -3.69%
35 | UGAGAAGGCACAGCUUGCACGUGA [hsa-miR-6770-5p] | 36.9% | -3.61% | 34.3%
36 | ACUGAGCCUCUCUCUCUCCAG [hsa-miR-6751-3p] | 65.4% | -22.5% | -10.3%
37 | CGGGGCGGCAGGGGCCUC [hsa-miR-3196] | 13.7% | -24.6% | 66%
38 | GAAUAUGGGUAUAUUAGUUUGG [hsa-miR-5583-3p] | 65.4% | 43.7% | -14.1%
39 | UAGCAGCACAGAAAUAUUGGC [hsa-miR-195-5p] | 26.4% | -10.1% | 13.4%
40 | AGUAUGUUCUUCCAGGACAGAAC [hsa-miR-567] | 56.1% | 34.9% | 8.77%
41 | UGAUUGUCUUCCCCCACCCUCA [hsa-miR-6766-3p] | 43.1% | -20.7% | 1.17%
42 | GACACGGGCGACAGCUGCGGCCC [hsa-miR-602] | 91.9% | 45.6% | -18.7%
43 | UCAAAUGCUCAGACUCCUGUGGU [hsa-miR-105-5p] | 37.7% | -18% | -6.5%
44 | CAACAAAUCACAGUCUGCCAUA [hsa-miR-7-1-3p] | 98.9% | 23.6% | -2.83%
45 | CCUGAGAAAAGGGCCAA [hsa-miR-4251] | 31.3% | -4.33% | 15.3%
